Assay [1] has as its target cross-linked and fluorescent HIV-1 CA tubes co-assembled from CA A14C/E45C and labelled CA K158C (HIV-1). The assay is described as follows: TIRF microscopy biosensor, equilibrium binding.
For assay [2] the target is unchanged. The assay is described as follows: TIRF microscopy biosensor.

The values below come from doi:10.1101/619841.

Regarding “cyclophilin A labelled at Cys51 with Alexa Fluor 647 (from UniProt P62937 1-165) (natural protein)”, in assay [1], the Kd turned out to be 8 µM and the stoichiometry N worked out at 0.5 CypA per CA.

For the substance “full length CPSF6 fused at its N-terminus to GFP (natural protein)”, the molar binding ratio (370 nM analyte) (molecules per CA) in assay [2] stood at 0.2.
